In PMC10579536 (Research and Practice in Thrombosis and Haemostasis, 2023):
Where two headings read alike, the source gives them in different places. Blank lines part the entries; values can stand above or below the molecule they belong to.

B3: Tie-2/Fc (Fc fusion, human, UniProt Q02763 23-748, looked up)
chain: AMDLILINSLPLVSDAETSLTCIASGWRPHEPITIGRDFEALMNQHQDPLEVTQDVTREWAKKVVWKREKASKINGAYFCEGRVRGEAIRIRTMKMRQQASFLPATLTMTVDKGDNVNISFKKVLIKEEDAVIYKNGSFIHSVPRHEVPDILEVHLPHAQPQDAGVYSARYIGGNLFTSAFTRLIVRRCEAQKWGPECNHLCTACMNNGVCHEDTGECICPPGFMGRTCEKACELHTFGRTCKERCSGQEGCKSYVFCLPDPYGCSCATGWKGLQCNEACHPGFYGPDCKLRCSCNNGEMCDRFQGCLCSPGWQGLQCEREGIQRMTPKIVDLPDHIEVNSGKFNPICKASGWPLPTNEEMTLVKPDGTVLHPKDFNHTDHFSVAIFTIHRILPPDSGVWVCSVNTVAGMVEKPFNISVKVLPKPLNAPNVIDTGHNFAVINISSEPYFGDGPIKSKKLLYKPVNHYEAWQHIQVTNEIVTLNYLEPRTEYELCVQLVRRGEGGEGHPGPVRRFTTASIGLPPPRGLNLLPKSQTTLNLTWQPIFPSSEDDFYVEVERRSVQKSDQQNIKVPGNLTSVLLNNLHPREQYVVRARVNTKAQGEWSEDLTAWTLSDILPPQPENIKISNITHSSAVISWTILDGYSISSITIRYKVQGKNEDQHVDVKIKNATITQYQLKGLEPETAYQVDIFAENNIGSSNPAFSHELVTLPESQAPADLGGGKMLL
B4: Recombinant human angiopoietin-1 (ligand, UniProt Q15389 16-498, looked up)
chain: HIGCSNQRRSPENSGRRYNRIQHGQCAYTFILPEHDGNCRESTTDQYNTNALQRDAPHVEPDFSSQKLQHLEHVMENYTQWLQKLENYIVENMKSEMAQIQQNAVQNHTATMLEIGTSLLSQTAEQTRKLTDVETQVLNQTSRLEIQLLENSLSTYKLEKQLLQQTNEILKIHEKNSLLEHKILEMEGKHKEELDTLKEEKENLQGLVTRQTYIIQELEKQLNRATTNNSVLQKQQLELMDTVHNLVNLCTKEGVLLKGGKREEEKPFRDCADVYQAGFNKSGIYTIYINNMPEPKKVFCNMDVNGGGWTVIQHREDGSLDFQRGWKEYKMGFGNPSGEYWLGNEFIFAITSQRQYMLRIELMDWEGNRAYSQYDRFHIGNEKQNYRLYLKGHTGTAGKQSSLILHGADFSTKDADNDNCMCKCALMLTGGWWFDACGPSNLNGMFYTAGQNHGKLNGIKWHYFKGPSYSLRSTTMMIRPLDF
B5: Recombinant human angiopoietin-2 (ligand, UniProt O15123 19-496, looked up)
chain: YNNFRKSMDSIGKKQYQVQHGSCSYTFLLPEMDNCRSSSSPYVSNAVQRDAPLEYDDSVQRLQVLENIMENNTQWLMKLENYIQDNMKKEMVEIQQNAVQNQTAVMIEIGTNLLNQTAEQTRKLTDVEAQVLNQTTRLELQLLEHSLSTNKLEKQILDQTSEINKLQDKNSFLEKKVLAMEDKHIIQLQSIKEEKDQLQVLVSKQNSIIEELEKKIVTATVNNSVLQKQQHDLMETVNNLLTMMSTSNSAKDPTVAKEEQISFRDCAEVFKSGHTTNGIYTLTFPNSTEEIKAYCDMEAGGGGWTIIQRREDGSVDFQRTWKEYKVGFGNPSGEYWLGNEFVSQLTNQQRYVLKIHLKDWEGNEAYSLYEHFYLSSEELNYRIHLKGLTGTAGKISSISQPGNDFSTKDGDNDKCICKCSQMLTGGWWFDACGPSNLNGMYYPQRQNTNKFNGIKWYYWKGSGYSLKATTMMIRPADF

Columns and labels:
Experiment in all cases: ELISA
[1] = biological target: Recombinant human angiopoietin-2 (human) (UniProt O15123)
[2] = biological target: Recombinant VWF fragment D’-D3-HPC4
[3] = biological target: B5
[4] = biological target: B4
[5] = biological target: B5; remark: listed apart in the source
Tie-2/Fc = biological target: B3
[6] = biological target: von Willebrand factor (plasma-derived) (human (endogenous in plasma), UniProt P04275 764-2813)

Molecule: B3
EC50 [4]: 0.2 ± 0.1 nM | EC50 [5]: 0.2 ± 0.1 nM

Molecule: B4
binding result (Tie-2/Fc): binds

Molecule: B5
EC50 [6]: 5.3 ± 1 nM | binding result (Tie-2/Fc): binds

Second part, the molecule after the results:

EC50 [1]: 159 nM
Molecule: Recombinant VWF fragment D’-D3-HPC4 (domain or fragment)

maximal percent inhibition of binding to Ang-2 [2]: 77%
Molecule: Recombinant FVIII (from UniProt P00451 20-2351) (natural protein)

EC50 [3]: 36.7 ± 9.7 nM
B1: Recombinant VWF A2 domain fused to Fc (Fc fusion)
chain: PGLLGVSTLGPKRNSMVLDVAFVLEGSDKIGEADFNRSKEFMEEVIQRMDVGQDSIHVTVLQYSYMVTVEYPFSEAQSKGDILQRVREIRYQGGNRTNTGLALRYLSDHSFLVSQGDREQAPNLVYMVTGNPASDEIKRLPGDIQVVPIGVGPNANVQELERIGWPNAPILIQDFETLPREAPDLVLQRCCSG

EC50 [3]: 18 ± 6 nM
B2: Recombinant VWF D4 domain fused to Fc (Fc fusion)
chain: PCVCTGSSTRHIVTFDGQNFKLTGSCSYVLFQNKEQDLEVILHNGACSPGARQGCMKSIEVKHSALSVELHSDMEVTVNGRLVSVPYVGGNMEVNVYGAIMHEVRFNHLGHIFTFTPQNNEFQLQLSPKTFASKTYGLCGICDENGANDFMLRDGTVTTDWKTLVQEWTVQRPGQTCQPILEEQCLVPDSSHCQVLLLPLFAECHKVLAPATFYAICQQDSCHQEQVCEVIASYAHLCRTNGVCVDWRTPDFCAMSCPPSLVYNHCEHGCPRHCDGNVSSCGDHPSEGCFCPPDKVMLEGSCVPEEACTQCIGEDGVQHQFLEAWVPDHQPCQICTCLSGRKVNCTTQPCPT
